Here are results for eight molecules from patent EP4582447A1 (Quaerite Biopharm Research (Beijing) Co., Ltd., dated 2025).

Where a chain is given by its changes, count along the chain named. Read-outs that look alike come from different tables or passages of the source.

The target in experiment [1] is T1, Human VEGFA165 (human, UniProt P15692-4 27-191).
T1 construct: treated as the same molecule; also called antigen VEGFA
The experiment can be described thus: ELISA, VEGFA coated 0.3 µg/mL, anti-His detection.

Experiment [2] deals with T1, Human VEGFA165. The experiment can be described thus: competition ELISA on coated VEGFA, competitor VEGFR2-ECD-Fc 2 nM.
Target sequence in this assay (P15692 other isoform, or with tags, fused parts or gaps limits assumed): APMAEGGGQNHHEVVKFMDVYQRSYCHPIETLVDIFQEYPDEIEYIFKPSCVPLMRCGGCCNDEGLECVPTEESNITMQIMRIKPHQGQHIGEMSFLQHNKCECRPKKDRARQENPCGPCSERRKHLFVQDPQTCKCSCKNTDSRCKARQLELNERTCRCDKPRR
In experiment [3] the target is T2, human VEGFA121 (human, UniProt P15692-9 27-147).
T2 sequence (looked up): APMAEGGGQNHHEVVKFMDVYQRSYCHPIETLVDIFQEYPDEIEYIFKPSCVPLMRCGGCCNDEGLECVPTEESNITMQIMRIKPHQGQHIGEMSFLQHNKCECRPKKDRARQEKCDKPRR
In words: ELISA, human VEGFA121 coated 0.3 µg/mL, anti-His detection.

Experiment [4] deals with T1, Human VEGFA165. The experiment can be described thus: cell-based or functional assay.
Target sequence in this assay (P15692 other isoform, or with tags, fused parts or gaps limits assumed): as the sequence (P15692 other isoform, or with tags, fused parts or gaps limits assumed) above
Experiment [5] has as its target T1, Human VEGFA165. In words: SPR, VEGFA165 on CM5.
Experiment [6] concerns the target T1, Human VEGFA165. The experiment can be described thus: ELISA, VEGFA coated 0.3 µg/mL, anti-His detection. The source holds these as a separate data set.
Target sequence in this assay (P15692 other isoform, or with tags, fused parts or gaps limits assumed): as the sequence (P15692 other isoform, or with tags, fused parts or gaps limits assumed) above
Experiment [7] deals with T1, Human VEGFA165. The experiment can be described thus: competition ELISA on coated VEGFA, competitor VEGFR2-ECD-Fc 1 nM.
Target sequence in this assay (P15692 other isoform, or with tags, fused parts or gaps limits assumed): as the sequence (P15692 other isoform, or with tags, fused parts or gaps limits assumed) above
Experiment [8] concerns the target 3% milk powder (negative control). The experiment can be described thus: phage ELISA, 3% milk powder coated (negative control), anti-M13(HRP).
Experiment [9] has as its target T1, Human VEGFA165. In words: phage ELISA, VEGFA coated 0.5 µg/mL, anti-M13(HRP).
Target sequence in this assay (P15692 other isoform, or with tags, fused parts or gaps limits assumed): as the sequence (P15692 other isoform, or with tags, fused parts or gaps limits assumed) above
In experiment [10] the target is T1, Human VEGFA165. The experiment can be described thus: SPR Biacore 8K, VEGFA165 amine-coupled on CM5, nanobody as analyte, 1:1 model.
For experiment [11], the target named is T1, Human VEGFA165. The description is as above. The source holds these as a separate data set.
Target sequence in this assay (P15692 other isoform, or with tags, fused parts or gaps limits assumed): as the sequence (P15692 other isoform, or with tags, fused parts or gaps limits assumed) above
Experiment [12] addresses T1, Human VEGFA165. The experiment can be described thus: SPR Biacore 8K, V1-SA1 amine-coupled on CM5, VEGFA165 as analyte, two state reaction model (ka1).
Experiment [13] deals with T1, Human VEGFA165. The experiment can be described thus: SPR Biacore 8K, V1-SA1 amine-coupled on CM5, VEGFA165 as analyte, two state reaction model (kd1).
Experiment [14] deals with T1, Human VEGFA165. The experiment can be described thus: SPR Biacore 8K, V1-SA1 amine-coupled on CM5, VEGFA165 as analyte, two state reaction model.

B1: linear tandem bivalent nanobody 2V15-9GS (VHH)
chain: QLQLVESGGGSVQPGGSLRLSCEVSGRTFASYTMGWFRQAPGKEREFVVAISKGGYKYDSVSLEARFTISKDNTKNTVYLQMNSLKPEDTAVYYCAGTRAYGSSRLRLAETYEYWGQGTQVTVSSGGGGSGGGSQLQLVESGGGSVQPGGSLRLSCEVSGRTFASYTMGWFRQAPGKEREFVVAISKGGYKYDSVSLEARFTISKDNTKNTVYLQMNSLKPEDTAVYYCAGTRAYGSSRLRLAETYEYWGQGTQVTVSS
notes: no further tag added here
As for B1, a half-maximal response in experiment [1] (EC50) required 0.25 nM.

B2: V1 (VHH)
VHH: QLQLVESGGGSVQPGGSLRLSCEVSGRTFSSYTMGWFRQAPGKEREFVVAISKGGYKYDSVSLEARFTISKDNTKNTVYLQMNSLKPEDTAVYYCAATRAYGSSRLRLADTYEYWGQGTQVTVSS
notes: also called candidate antibody V1; antibody V1
Consider B2, for which, in [2], the half-maximal inhibitory concentration (IC50) was 26.4 nM and the “Maximum inhibition rate (%)” value was determined as 95%. The molecule also registered a concentration giving a half-maximal response (EC50) in [3] of 1.27 nM. For the same molecule, in experiment [4], the “IC50 (pM), inhibition of VEGFA-stimulated HUVEC proliferation (CCK-8)” value (shortened to “IC50 (pM), inhibition”) turned out to be 2690 pM and the “Maximum inhibition rate (%) of HUVEC proliferation” value is 103%. Further, the “fold difference of KD from the positive control BI-VEGF ab” value (shortened to “fold difference of KD”) in experiment [5] is less than 3 fold. This molecule had an EC50 in experiment [6] of 0.53 nM. Also, in [7], the IC50 was found to be 5.59 nM and the “Maximum inhibition rate (%)” value was 90.5%. Also, the OD450 in experiment [8] was determined as 0.0377 OD450. For the same molecule, the OD450 in experiment [9] is 2.31 OD450. In experiment [10], this molecule gave a Kd of 0.247 nM, a koff of 0.000101 s⁻¹ and a kon of 409000 M⁻¹ s⁻¹. In experiment [11], this molecule gave a Kd of 0.247 nM, a koff of 0.000101 s⁻¹ and a kon of 409000 M⁻¹ s⁻¹.

B3: V21 (VHH)
VHH: B2 VHH with S30T, D59N, S60T, A97G, D110E
notes: Purified with C-terminal GGGGS-6×His
On to B3, for which, in experiment [7], the IC50 was found to be 4.62 nM and the “Maximum inhibition rate (%)” value worked out at 88.3%. The same molecule displayed an OD450 in [8] of 0.0186 OD450. In addition, the OD450 in [9] worked out at 2.15 OD450.

B4: V14 (VHH)
VHH: B2 VHH with S30T, D59N, S60T, A97G, D110N
notes: as for B3
Consider B4, for which, in experiment [7], the 50% inhibitory concentration (IC50) stood at 4.58 nM and the “Maximum inhibition rate (%)” value was determined as 94.9%. Further, the OD450 in experiment [8] worked out at 0.0252 OD450. This molecule returned an OD450 in experiment [9] of 2.03 OD450.

B5: V17 (VHH)
VHH: B2 VHH with S60T, D110K
notes: as for B3
Consider B5, for which, in experiment [7], the IC50 was 16.3 nM and the “Maximum inhibition rate (%)” value worked out at 80.4%. This molecule also had an OD450 in experiment [8] of 0.0403 OD450. This molecule also returned an OD450 in experiment [9] of 3.47 OD450.

B6: V13 (VHH)
VHH: B2 VHH with S30T, S60A, A97G
notes: Purified with C-terminal GGGGS-6×His; also called candidate antibody V13
Consider B6, for which, in experiment [4], the “IC50 (pM), inhibition” value was 3940 pM and the “Maximum inhibition rate (%) of HUVEC proliferation” value worked out at 94.7%. Further, the “fold difference of KD” value in [5] was less than 3 fold. Further, the OD450 in [8] was determined as 0.0144 OD450. Also, in experiment [9], the OD450 was found to be 2.14 OD450. In experiment [10], this molecule returned a Kd of 0.224 nM, a koff of 8.65e-05 s⁻¹ and an association rate constant (kon) of 386000 M⁻¹ s⁻¹.

B7: V15 (VHH)
VHH: B2 VHH with S30A, A97G, D110E
notes: Purified with C-terminal GGGGS-6×His; also called candidate antibody V15
In the case of B7, in experiment [2], the IC50 came to 29.3 nM and the “Maximum inhibition rate (%)” value came out at 71.6%. Moreover, in experiment [4], the “IC50 (pM), inhibition” value came out at 7120 pM and the “Maximum inhibition rate (%) of HUVEC proliferation” value is 84.2%. Besides, the “fold difference of KD” value in [5] is less than 3 fold. The same molecule displayed an EC50 in experiment [6] of 0.89 nM. Moreover, in experiment [7], the IC50 is 3.89 nM and the “Maximum inhibition rate (%)” value was found to be 94.6%. This molecule also yielded an OD450 in experiment [8] of 0.0126 OD450. The molecule further yielded an OD450 in [9] of 1.87 OD450. For the same molecule, in experiment [10], binding was characterised by a dissociation constant (Kd) of 0.277 nM, the koff is 9.61e-05 s⁻¹ and the kon turned out to be 347000 M⁻¹ s⁻¹.

B8: V1-SA1 (VHH)
VHH: B2 VHH with Q1E, L2V, S11L, E23A, K71R, T74A, K86R, Q120L
notes: Humanized V1; also called humanized antibody V1-SA1; monovalent nanobody V1-SA1
Regarding B8, in experiment [2], the IC50 turned out to be 22.5 nM and the “Maximum inhibition rate (%)” value amounted to 94.6%. Besides, the kon in [12] was determined as 1.06e+06 M⁻¹ s⁻¹. Moreover, in [13], the koff came out at 0.0598 s⁻¹. The molecule further returned a Kd in experiment [14] of 4.38 nM.
